Target: DTR

Question: How did the death of cochlea outer hair cells in Prestin-P2A-DTR/+ mice after DT at P36 turn out when Diphtheria toxin (from UniProt P00588) was run?
Answer: > 90%

Source: patent US20240075098A1
